The values that follow come from paper PMC5511134, “Intrinsic dynamics study identifies two amino acids of TIMP-1 critical for its LRP-1-mediated endocytosis in neurons” (Scientific Reports, 2017).

In one assay the target is T1, MMP-9 (UniProt P14780 107-707).
T1 construct: MMP-9; source: bought: Merck Biosciences
Nature of the assay: enzyme inhibition assay (fluorogenic substrate, Morrison equation); 0.3 nM MMP-9 incubated 2 h at 27 °C with 0.7 to 11 nM TIMP-1 or mutants in 50 mM Tris-HCl pH 7.5, 150 mM NaCl, 5 mM CaCl2; 5 µM MMP-1/-9 fluorogenic substrate. Particulars: both partners purified.

Assay [1] addresses T2, Recombinant LRP-1 mini-domain DIV with an Fc-tag (UniProt Q07954 3332-3778).
T2 construct: No catalogue number is printed; also called LRP-1 domain IV; source: bought: R&D
Nature of the assay: SPR; Biacore T200; LRP-1 DII or DIV with Fc-tag immobilised on a CMD500m chip functionalised with anti-Fc antibody; TIMP-1 or mutants 5-160 nM injected, multi-cycle kinetics; HBS-N (50 mM Hepes, 150 mM NaCl, 0.005% Tween, pH 7.4); KD calculated from kon and koff. The following applies: both partners purified.

In assay [2] the target is T3, Recombinant LRP-1 mini-domain DII with an Fc-tag (UniProt Q07954 852-1182).
T3 construct: No catalogue number is printed; also called LRP-1 domain II; source: bought: R&D
T3 sequence (looked up): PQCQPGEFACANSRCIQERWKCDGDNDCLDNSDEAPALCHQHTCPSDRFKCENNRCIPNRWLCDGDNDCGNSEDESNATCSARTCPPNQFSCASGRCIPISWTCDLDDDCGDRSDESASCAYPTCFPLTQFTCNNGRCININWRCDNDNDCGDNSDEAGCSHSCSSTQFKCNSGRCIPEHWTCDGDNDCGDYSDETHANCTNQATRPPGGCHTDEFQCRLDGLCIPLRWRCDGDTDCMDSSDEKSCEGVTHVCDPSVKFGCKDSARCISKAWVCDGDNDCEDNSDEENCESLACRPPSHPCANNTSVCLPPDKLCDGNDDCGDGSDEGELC
The description is as above. Particulars: both partners purified.

The next assay has as its target T4, MMP-2 (UniProt P08253 110-660).
T4 construct: MMP-2; source: bought: Merck Biosciences
T4 sequence (looked up): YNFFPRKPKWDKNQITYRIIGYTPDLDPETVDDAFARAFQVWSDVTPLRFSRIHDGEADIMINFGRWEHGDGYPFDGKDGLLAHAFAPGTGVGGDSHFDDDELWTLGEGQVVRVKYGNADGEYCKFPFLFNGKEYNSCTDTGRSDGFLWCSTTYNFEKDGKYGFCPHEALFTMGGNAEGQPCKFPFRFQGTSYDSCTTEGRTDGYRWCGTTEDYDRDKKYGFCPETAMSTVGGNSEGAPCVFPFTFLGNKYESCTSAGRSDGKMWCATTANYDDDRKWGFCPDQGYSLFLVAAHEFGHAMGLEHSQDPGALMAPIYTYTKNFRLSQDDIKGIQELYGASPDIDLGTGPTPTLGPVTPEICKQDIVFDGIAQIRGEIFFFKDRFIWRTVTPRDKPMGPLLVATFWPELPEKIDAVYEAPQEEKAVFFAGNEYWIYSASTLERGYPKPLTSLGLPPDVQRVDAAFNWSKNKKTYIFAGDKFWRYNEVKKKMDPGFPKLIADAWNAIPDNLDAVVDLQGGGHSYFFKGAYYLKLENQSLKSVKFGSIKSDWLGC
Nature of the assay: enzyme inhibition assay (fluorogenic substrate, Morrison equation); 0.76 nM MMP-2 incubated 2 h at 27 °C with 0.17 to 13.5 nM TIMP-1 or mutants in 50 mM Tris-HCl pH 7.5, 150 mM NaCl, 5 mM CaCl2; 2.5 µM MMP-2/-7 fluorogenic substrate. Particulars: both partners purified.

A further assay addresses T5, MMP-3 catalytic domain (UniProt P08254 100-272).
T5 construct: MMP-3 catalytic domain; source: bought: Merck Biosciences
Nature of the assay: enzyme inhibition assay (fluorogenic substrate, Morrison equation); 2.3 nM MMP-3 catalytic domain incubated 1 h at 27 °C with 0.1 to 5.4 nM TIMP-1 or mutants in 50 mM Tris-HCl pH 7.5, 150 mM NaCl, 5 mM CaCl2; 3 µM MMP-3 fluorogenic substrate. Particulars: both partners purified.

In assay [3] the target is T6, low-density lipoprotein receptor-related protein-1 (LRP-1) on mouse cortical neurons (mouse (endogenous in cortical neurons), UniProt Q91ZX7 20-4545).
T6 construct: LRP-1 at the surface of primary cortical neurons; extracellular alpha-chain non-covalently associated with the transmembrane beta-chain; source: endogenous, primary cortical neurons from CD1 mouse embryos
T6 sequence (Q91ZX7 20-4545): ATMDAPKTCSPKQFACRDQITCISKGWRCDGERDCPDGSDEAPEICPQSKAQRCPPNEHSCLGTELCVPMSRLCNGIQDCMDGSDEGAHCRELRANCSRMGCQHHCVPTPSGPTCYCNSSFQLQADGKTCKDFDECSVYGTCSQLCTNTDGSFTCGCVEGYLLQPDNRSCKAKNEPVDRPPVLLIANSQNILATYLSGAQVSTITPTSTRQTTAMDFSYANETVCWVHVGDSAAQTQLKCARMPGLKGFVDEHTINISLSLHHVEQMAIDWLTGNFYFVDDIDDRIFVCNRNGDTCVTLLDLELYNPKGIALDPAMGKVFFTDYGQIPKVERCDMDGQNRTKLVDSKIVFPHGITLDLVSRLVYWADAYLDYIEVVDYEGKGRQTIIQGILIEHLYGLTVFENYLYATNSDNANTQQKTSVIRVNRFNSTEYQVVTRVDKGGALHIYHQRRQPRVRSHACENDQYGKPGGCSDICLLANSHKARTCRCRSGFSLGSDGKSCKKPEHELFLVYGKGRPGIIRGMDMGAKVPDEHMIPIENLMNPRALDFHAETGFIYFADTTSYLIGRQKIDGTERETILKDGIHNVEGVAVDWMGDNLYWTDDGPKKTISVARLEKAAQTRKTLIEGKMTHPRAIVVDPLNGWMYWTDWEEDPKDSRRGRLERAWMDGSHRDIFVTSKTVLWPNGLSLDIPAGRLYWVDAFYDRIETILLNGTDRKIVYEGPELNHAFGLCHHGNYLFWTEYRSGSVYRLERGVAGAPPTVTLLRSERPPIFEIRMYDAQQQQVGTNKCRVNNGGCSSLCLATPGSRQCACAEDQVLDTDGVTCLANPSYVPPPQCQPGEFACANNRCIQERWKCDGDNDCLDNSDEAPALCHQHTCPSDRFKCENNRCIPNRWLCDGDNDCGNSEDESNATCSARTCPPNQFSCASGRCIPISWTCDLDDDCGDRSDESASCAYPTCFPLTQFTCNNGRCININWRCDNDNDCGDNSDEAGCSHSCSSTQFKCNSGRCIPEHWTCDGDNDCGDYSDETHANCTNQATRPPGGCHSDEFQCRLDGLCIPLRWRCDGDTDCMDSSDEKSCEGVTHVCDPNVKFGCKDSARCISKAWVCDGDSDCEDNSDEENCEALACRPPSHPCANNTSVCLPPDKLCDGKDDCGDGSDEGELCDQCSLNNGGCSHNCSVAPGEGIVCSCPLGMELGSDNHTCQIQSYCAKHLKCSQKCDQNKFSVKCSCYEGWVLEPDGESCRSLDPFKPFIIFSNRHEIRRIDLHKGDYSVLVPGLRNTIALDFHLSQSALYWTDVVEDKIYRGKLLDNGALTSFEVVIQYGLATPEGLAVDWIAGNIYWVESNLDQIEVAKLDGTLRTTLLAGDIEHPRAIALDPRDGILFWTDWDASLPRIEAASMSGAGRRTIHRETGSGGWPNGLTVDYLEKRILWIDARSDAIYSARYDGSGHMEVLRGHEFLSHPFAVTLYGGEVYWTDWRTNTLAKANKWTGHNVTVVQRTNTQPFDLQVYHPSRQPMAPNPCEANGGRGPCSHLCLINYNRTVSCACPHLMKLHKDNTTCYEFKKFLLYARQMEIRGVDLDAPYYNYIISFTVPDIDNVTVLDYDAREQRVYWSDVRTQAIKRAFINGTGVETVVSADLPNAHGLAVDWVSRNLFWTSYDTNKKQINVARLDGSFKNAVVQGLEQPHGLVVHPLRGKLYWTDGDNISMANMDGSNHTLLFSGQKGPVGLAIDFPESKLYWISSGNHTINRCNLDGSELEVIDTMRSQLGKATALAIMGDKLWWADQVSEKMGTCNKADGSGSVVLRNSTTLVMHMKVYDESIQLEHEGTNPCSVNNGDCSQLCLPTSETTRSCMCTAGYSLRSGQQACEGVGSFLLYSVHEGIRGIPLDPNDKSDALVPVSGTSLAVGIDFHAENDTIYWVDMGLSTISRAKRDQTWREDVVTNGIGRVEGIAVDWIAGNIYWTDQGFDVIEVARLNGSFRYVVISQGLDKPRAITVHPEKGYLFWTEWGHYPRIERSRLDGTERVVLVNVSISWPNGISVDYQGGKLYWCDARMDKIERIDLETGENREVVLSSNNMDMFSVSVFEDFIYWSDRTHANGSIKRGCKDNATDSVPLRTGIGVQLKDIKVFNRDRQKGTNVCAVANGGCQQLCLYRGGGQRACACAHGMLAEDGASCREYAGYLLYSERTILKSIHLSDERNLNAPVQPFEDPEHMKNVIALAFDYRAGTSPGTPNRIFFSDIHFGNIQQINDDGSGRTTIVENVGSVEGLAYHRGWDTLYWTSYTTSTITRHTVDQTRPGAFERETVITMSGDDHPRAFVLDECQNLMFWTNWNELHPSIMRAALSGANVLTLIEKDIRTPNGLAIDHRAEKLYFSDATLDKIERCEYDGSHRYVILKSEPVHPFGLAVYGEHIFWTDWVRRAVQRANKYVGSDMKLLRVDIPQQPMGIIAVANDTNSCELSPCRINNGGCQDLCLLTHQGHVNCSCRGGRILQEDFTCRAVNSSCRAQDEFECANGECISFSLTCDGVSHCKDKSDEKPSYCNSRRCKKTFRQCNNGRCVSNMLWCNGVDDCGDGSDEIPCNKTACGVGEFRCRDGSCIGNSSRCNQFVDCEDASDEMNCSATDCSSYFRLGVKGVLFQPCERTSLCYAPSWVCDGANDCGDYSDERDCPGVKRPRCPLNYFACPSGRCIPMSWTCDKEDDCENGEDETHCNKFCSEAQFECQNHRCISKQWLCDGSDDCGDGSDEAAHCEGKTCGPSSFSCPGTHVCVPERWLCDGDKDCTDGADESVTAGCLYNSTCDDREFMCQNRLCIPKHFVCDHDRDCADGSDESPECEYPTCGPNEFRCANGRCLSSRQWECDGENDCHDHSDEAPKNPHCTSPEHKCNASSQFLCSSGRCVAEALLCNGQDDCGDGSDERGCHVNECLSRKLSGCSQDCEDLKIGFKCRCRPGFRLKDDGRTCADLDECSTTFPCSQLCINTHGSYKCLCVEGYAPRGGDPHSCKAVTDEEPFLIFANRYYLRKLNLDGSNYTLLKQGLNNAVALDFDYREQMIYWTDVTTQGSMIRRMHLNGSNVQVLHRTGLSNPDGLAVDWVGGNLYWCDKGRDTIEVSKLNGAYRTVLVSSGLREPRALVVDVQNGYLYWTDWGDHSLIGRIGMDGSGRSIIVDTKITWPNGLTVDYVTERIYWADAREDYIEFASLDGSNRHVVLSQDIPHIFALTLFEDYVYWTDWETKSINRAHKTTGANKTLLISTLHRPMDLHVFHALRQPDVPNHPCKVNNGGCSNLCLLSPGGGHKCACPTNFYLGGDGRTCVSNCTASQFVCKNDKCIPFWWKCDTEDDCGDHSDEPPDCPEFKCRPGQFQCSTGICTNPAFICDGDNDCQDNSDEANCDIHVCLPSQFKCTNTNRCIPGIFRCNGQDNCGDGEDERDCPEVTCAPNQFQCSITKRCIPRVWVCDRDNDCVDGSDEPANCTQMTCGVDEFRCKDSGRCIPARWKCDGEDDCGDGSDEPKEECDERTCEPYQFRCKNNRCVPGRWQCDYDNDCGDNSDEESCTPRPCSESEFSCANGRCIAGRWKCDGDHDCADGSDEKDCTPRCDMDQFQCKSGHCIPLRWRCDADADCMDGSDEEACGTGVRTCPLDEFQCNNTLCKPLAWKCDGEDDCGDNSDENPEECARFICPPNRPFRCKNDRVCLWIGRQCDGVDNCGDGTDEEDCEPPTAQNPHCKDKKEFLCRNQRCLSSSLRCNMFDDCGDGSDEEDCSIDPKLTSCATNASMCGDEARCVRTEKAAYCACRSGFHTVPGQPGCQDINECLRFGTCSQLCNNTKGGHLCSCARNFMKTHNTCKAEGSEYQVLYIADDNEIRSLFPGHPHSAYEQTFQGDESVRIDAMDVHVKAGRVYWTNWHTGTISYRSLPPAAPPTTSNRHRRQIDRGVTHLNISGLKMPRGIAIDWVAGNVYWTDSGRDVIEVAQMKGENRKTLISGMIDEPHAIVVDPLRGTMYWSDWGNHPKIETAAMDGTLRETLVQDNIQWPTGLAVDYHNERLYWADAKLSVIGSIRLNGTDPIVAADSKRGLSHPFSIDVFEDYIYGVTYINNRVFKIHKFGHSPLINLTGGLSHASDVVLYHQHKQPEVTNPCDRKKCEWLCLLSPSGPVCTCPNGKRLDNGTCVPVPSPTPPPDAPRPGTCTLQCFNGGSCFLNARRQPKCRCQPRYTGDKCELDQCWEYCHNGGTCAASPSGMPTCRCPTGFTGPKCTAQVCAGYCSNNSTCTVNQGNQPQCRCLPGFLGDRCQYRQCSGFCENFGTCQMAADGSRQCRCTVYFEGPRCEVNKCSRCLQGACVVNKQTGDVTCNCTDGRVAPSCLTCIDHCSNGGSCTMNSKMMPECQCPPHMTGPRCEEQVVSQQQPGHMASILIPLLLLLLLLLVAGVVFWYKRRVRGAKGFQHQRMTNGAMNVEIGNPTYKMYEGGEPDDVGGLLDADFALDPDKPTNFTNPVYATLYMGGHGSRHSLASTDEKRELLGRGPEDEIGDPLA
Nature of the assay: fluorescence of ligand bound to the cell surface (released by pronase, spectrofluorimetry); mouse cortical neurons incubated at 4 °C with 5 nM eFluor-conjugated TIMP-1 or mutants, with or without 500 nM RAP or 30 µg/mL LRP-1 blocking antibodies R2629; washed, surface-digested with 0.1% pronase, fluorescence of the supernatant. Particulars: one partner purified.

T1 sequence (P14780 107-707): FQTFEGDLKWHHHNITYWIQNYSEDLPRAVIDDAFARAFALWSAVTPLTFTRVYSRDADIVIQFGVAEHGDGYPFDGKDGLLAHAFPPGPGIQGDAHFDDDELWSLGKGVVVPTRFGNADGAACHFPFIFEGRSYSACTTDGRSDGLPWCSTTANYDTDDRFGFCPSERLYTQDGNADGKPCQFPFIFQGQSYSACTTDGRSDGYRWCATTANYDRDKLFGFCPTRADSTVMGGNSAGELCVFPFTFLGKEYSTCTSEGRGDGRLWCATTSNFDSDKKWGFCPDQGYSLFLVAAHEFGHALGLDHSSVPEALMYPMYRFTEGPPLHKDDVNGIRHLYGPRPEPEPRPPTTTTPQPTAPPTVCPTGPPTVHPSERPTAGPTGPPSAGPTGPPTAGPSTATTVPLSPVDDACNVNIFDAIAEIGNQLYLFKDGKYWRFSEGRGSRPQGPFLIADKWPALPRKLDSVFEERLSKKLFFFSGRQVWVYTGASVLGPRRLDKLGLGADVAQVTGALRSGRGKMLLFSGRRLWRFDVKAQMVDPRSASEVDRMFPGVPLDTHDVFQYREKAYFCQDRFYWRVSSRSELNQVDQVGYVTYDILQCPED

B1: FLAG-tagged TIMP-1 (tissue inhibitor of metalloproteinases-1), wild type (natural protein)
chain: not shown
modifications: glycosylated
notes: TIMP-1, cDNA from Origene (pCMV6-XL5) cloned into p3XFLAG-CMV14 from the start ATG; secreted by CHO cells. numbers count on: the mature protein; its concentration was measured with a Human TIMP-1 ELISA kit and the modelling used PDB 1UEA; also called T1-WT; wild-type TIMP-1; source: CHO cells, stably transfected; not shown: 3X-FLAG, C-terminal, kept
As for B1, the inhibition constant (Ki) stood at 4.25 nM with MMP-9, 0.09 nM in the assay with MMP-2 and 1.18 nM in the assay with MMP-3 catalytic domain. Moreover, the figures for the Kd in assay [1] and in assay [2] were 37.4 nM and 10.8 nM, respectively. The koff is 0.0056 s⁻¹ in assay [1] and 0.0136 s⁻¹ in assay [2]. The kon is 148000 M⁻¹ s⁻¹ in assay [1] and 1.28e+06 M⁻¹ s⁻¹ in assay [2].

B2: FLAG-tagged TIMP-1 F12A (natural protein)
chain: not shown
modifications: glycosylated
notes: TIMP-1, cDNA from Origene, site-directed mutant F12A; secreted by CHO cells; also called T1-F12A; source: CHO cells, stably transfected; not shown: 3X-FLAG, C-terminal, kept
For the molecule B2, the inhibition constant Ki with MMP-9 amounted to 4.76 nM; in the assay with MMP-2, 0.06 nM; with MMP-3 catalytic domain, 0.58 nM. Moreover, the Kd in assay [1] was 38.7 nM; in assay [2], 18.5 nM. Also, the koff is 0.0055 s⁻¹ in assay [1] and 0.0192 s⁻¹ in assay [2]. Besides, the kon in assay [1] is 143000 M⁻¹ s⁻¹; in assay [2], 1.07e+06 M⁻¹ s⁻¹.

B3: FLAG-tagged TIMP-1 K47A (natural protein)
chain: not shown
modifications: glycosylated
notes: TIMP-1, cDNA from Origene, site-directed mutant K47A; secreted by CHO cells; also called T1-K47A; T1K47A; source: CHO cells, stably transfected; not shown: 3X-FLAG, C-terminal, kept
In turn, B3 showed a Ki with MMP-9 of 4.4 nM. Besides, in assay [1], the dissociation constant Kd was 26.5 nM, the koff was 0.0114 s⁻¹ and the on-rate constant (kon) was 427000 M⁻¹ s⁻¹. This molecule yielded a Ki with MMP-2 of 0.03 nM. For the same molecule, in the assay with MMP-3 catalytic domain, the Ki was 0.55 nM.

B4: eFluor-conjugated T1-WT (natural protein)
chain: not shown
modifications: biotinylated (ProtOn Biotin Labelling Kit), incubated with eFluor 450 Streptavidin
notes: TIMP-1 as in m1 (T1-WT), labelled. numbers count on: the mature protein; also called fluoT1-WT; fluo-T1-WT; source: CHO cells, stably transfected
Take B4: in assay [3], the “fluorescence at the cell surface” value was ~1500 A.U.

B5: eFluor-conjugated T1-K47A (natural protein)
chain: not shown
modifications: biotinylated (ProtOn Biotin Labelling Kit), incubated with eFluor 450 Streptavidin
notes: TIMP-1 K47A as in m3, labelled; also called fluoT1-K47A; fluoT1K47A; source: CHO cells, stably transfected
As for B5, the “fluorescence at the cell surface” value in assay [3] was ~1500 A.U.

B6: eFluor-conjugated T1-F12A (natural protein)
chain: not shown
modifications: biotinylated (ProtOn Biotin Labelling Kit), incubated with eFluor 450 Streptavidin
notes: TIMP-1 F12A as in m2, labelled; also called fluoT1-F12A; fluo-T1-F12A; source: CHO cells, stably transfected
For B6, the “fluorescence at the cell surface” value in assay [3] is ~1500 A.U.

As a reminder, the Ki is the equilibrium dissociation constant of an inhibitor or competing ligand from its target. Low values mean tighter binding, high ones weaker binding. By Kd is commonly meant the constant that tells how readily two partners part at equilibrium. The term koff denotes the first-order rate constant of dissociation. What is called kon is the second-order rate constant of association.
